Assay results: the supplement of paper PMC7877785
± gives the uncertainty stated by the source.

Experiment: self-splicing fitness, log relative to wild type (ln ratio); higher = more splicing; Tetrahymena group I intron in knt gene, E. coli kanamycin selection, DiMSum; sequences stand for … in CUCUCU…GGAGGGAAAAGUUAUCAGGCAUGCACCUGGUAGCUAGUCUUUAAACCAAUAGAUUGCAUCGGUUUAAAAGGCAAGACCGUCAAAUUGCGGGAAAGGGGUCAACAGCCGUUCAGUACCAAGUCUCAGGGGAAACUUUGAGAUGGCCUUGCAAAGGGUAUGGUAAUAAGCUGACGGACAUGGUCCUAACCACGCAGCCAAGUCCUAAGUCAACAGAUCUUCUGUUGAUAUGGAUGCAGUUCACAGACUAAAUGUCGGUCGGGGAAGAUGUAUUCUUCUCAUAAGAUAUAGUCGGACCUCUCCUUAAUGGGAGCUAGCGGAUGAAGUGAUGCAACACUGGAGCCGCUGGGAACUAAUUUGUAUGCGAAAGUAUAUUGAUUAGUUUUGGAGUACUCGUGGUCG
Outline: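 Colonies from six replicate transformations of E. coli BL21(DE3) were pooled and amplicon-sequenced on an Illumina HiSeq 2500. The library placed an intron with all eight P1ex-region nucleotides randomised inside the knt kanamycin-resistance gene on pET-22b(+), and cells grew overnight at 37°C or 30°C on LB agar with or without 25 μg/mL kanamycin (plus 100 μg/mL carbenicillin, 50 μM IPTG, 0.2% rhamnose). Fitness is the DiMSum error-weighted combination of wild-type-normalised replicate fold changes, kanamycin versus none.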

Sequence: GUCUAGCAAUAUUACGUCUU
- self-splicing fitness (ln) (30 °C): -0.274 ± 0.09
- self-splicing fitness (ln) (37 °C): 1.25 ± 0.099

Sequence: AAGGAGCAAUAUUACGACUG
- self-splicing fitness (ln) (30 °C): -1.75 ± 0.16
- self-splicing fitness (ln) (37 °C): -1.05 ± 0.18

Sequence: AUGAAGCAAUAUUACGAGUC
- self-splicing fitness (ln) (37 °C): -2.69 ± 0.24

Sequence: UCUCAGCAAUAUUACGACUC
- self-splicing fitness (ln) (30 °C): -3.38 ± 0.38
- self-splicing fitness (ln) (37 °C): -2.02 ± 0.33

Sequence: CUGUAGCAAUAUUACGGUUA
- self-splicing fitness (ln) (30 °C): -2.17 ± 0.24
- self-splicing fitness (ln) (37 °C): -2.58 ± 0.36

Sequence: CAACAGCAAUAUUACGAGGG
- self-splicing fitness (ln) (30 °C): -2.38 ± 0.073
- self-splicing fitness (ln) (37 °C): -2.2 ± 0.094

Sequence: GAAGAGCAAUAUUACGUGGA
- self-splicing fitness (ln) (30 °C): -2.05 ± 0.18
- self-splicing fitness (ln) (37 °C): -2.54 ± 0.26

Sequence: CAACAGCAAUAUUACGUACG
- self-splicing fitness (ln) (30 °C): -0.0141 ± 0.079
- self-splicing fitness (ln) (37 °C): 0.194 ± 0.11

Sequence: AUAGAGCAAUAUUACGCAUU
- self-splicing fitness (ln) (30 °C): -1.19 ± 0.096
- self-splicing fitness (ln) (37 °C): -0.296 ± 0.1

Sequence: GCGAAGCAAUAUUACGUGAA
- self-splicing fitness (ln) (30 °C): -2.3 ± 0.14
- self-splicing fitness (ln) (37 °C): -0.526 ± 0.14

Sequence: CCCAAGCAAUAUUACGGAUG
- self-splicing fitness (ln) (30 °C): -3.07 ± 0.1
- self-splicing fitness (ln) (37 °C): -2.49 ± 0.11

Sequence: CUACAGCAAUAUUACGAAGC
- self-splicing fitness (ln) (30 °C): -3.61 ± 0.24
- self-splicing fitness (ln) (37 °C): -2.85 ± 0.25

Sequence: GAUCAGCAAUAUUACGUCAA
- self-splicing fitness (ln) (30 °C): -1.01 ± 0.1
- self-splicing fitness (ln) (37 °C): -0.615 ± 0.14

Sequence: AGUCAGCAAUAUUACGAGGC
- self-splicing fitness (ln) (30 °C): -2.81 ± 0.31
- self-splicing fitness (ln) (37 °C): -0.606 ± 0.31

Sequence: CCUAAGCAAUAUUACGUGUA
- self-splicing fitness (ln) (30 °C): -3.61 ± 0.15
- self-splicing fitness (ln) (37 °C): -1.89 ± 0.14

Sequence: UGCCAGCAAUAUUACGCCGC
- self-splicing fitness (ln) (30 °C): -2.25 ± 0.23
- self-splicing fitness (ln) (37 °C): -1.49 ± 0.22

Sequence: CACGAGCAAUAUUACGCGAA
- self-splicing fitness (ln) (30 °C): -2.93 ± 0.28
- self-splicing fitness (ln) (37 °C): -2.1 ± 0.26

Sequence: GAAGAGCAAUAUUACGCUUC
- self-splicing fitness (ln) (30 °C): -2.47 ± 0.34
- self-splicing fitness (ln) (37 °C): -1.37 ± 0.18

Sequence: AGUUAGCAAUAUUACGAAGC
- self-splicing fitness (ln) (30 °C): -3.59 ± 0.48
- self-splicing fitness (ln) (37 °C): -1.98 ± 0.48

Sequence: CCGUAGCAAUAUUACGGUCG
- self-splicing fitness (ln) (30 °C): -0.844 ± 0.074
- self-splicing fitness (ln) (37 °C): -0.447 ± 0.095

Sequence: GCCCAGCAAUAUUACGUCCG
- self-splicing fitness (ln) (30 °C): -3.33 ± 0.26
- self-splicing fitness (ln) (37 °C): -2.83 ± 0.21

Sequence: UCUCAGCAAUAUUACGGACU
- self-splicing fitness (ln) (30 °C): -1.23 ± 0.062
- self-splicing fitness (ln) (37 °C): -0.345 ± 0.088

Sequence: GAGAAGCAAUAUUACGGCUU
- self-splicing fitness (ln) (30 °C): -3.58 ± 0.33
- self-splicing fitness (ln) (37 °C): -1.75 ± 0.24

Sequence: CGGUAGCAAUAUUACGAUAA
- self-splicing fitness (ln) (30 °C): -2.55 ± 0.21
- self-splicing fitness (ln) (37 °C): -1.61 ± 0.24

Sequence: GUCGAGCAAUAUUACGCGGG
- self-splicing fitness (ln) (30 °C): -2.85 ± 0.15
- self-splicing fitness (ln) (37 °C): -1.94 ± 0.19

Sequence: GUACAGCAAUAUUACGGAGU
- self-splicing fitness (ln) (30 °C): -3.06 ± 0.18
- self-splicing fitness (ln) (37 °C): -1.88 ± 0.15

Sequence: CCGAAGCAAUAUUACGGGAA
- self-splicing fitness (ln) (30 °C): -2.26 ± 0.25
- self-splicing fitness (ln) (37 °C): -1.73 ± 0.32

Sequence: GGUGAGCAAUAUUACGAAGU
- self-splicing fitness (ln) (30 °C): -2.25 ± 0.23
- self-splicing fitness (ln) (37 °C): -1.67 ± 0.35

Sequence: UGCAAGCAAUAUUACGUGGC
- self-splicing fitness (ln) (30 °C): -2.62 ± 0.16
- self-splicing fitness (ln) (37 °C): -1.68 ± 0.2

Sequence: UGAAAGCAAUAUUACGUGAC
- self-splicing fitness (ln) (30 °C): -3.86 ± 0.29
- self-splicing fitness (ln) (37 °C): -2.01 ± 0.17

Sequence: CCUCAGCAAUAUUACGUAUC
- self-splicing fitness (ln) (30 °C): -0.834 ± 0.13
- self-splicing fitness (ln) (37 °C): -3.05 ± 0.26

Sequence: CUAGAGCAAUAUUACGAUGA
- self-splicing fitness (ln) (30 °C): -1.86 ± 0.14
- self-splicing fitness (ln) (37 °C): -1.12 ± 0.22

Sequence: GGCAAGCAAUAUUACGGCAG
- self-splicing fitness (ln) (30 °C): -2.32 ± 0.14
- self-splicing fitness (ln) (37 °C): -1.15 ± 0.15

Sequence: ACAUAGCAAUAUUACGACUU
- self-splicing fitness (ln) (30 °C): 0.0662 ± 0.074
- self-splicing fitness (ln) (37 °C): -0.163 ± 0.087

Sequence: GGGAAGCAAUAUUACGGAGG
- self-splicing fitness (ln) (30 °C): -2.91 ± 0.41
- self-splicing fitness (ln) (37 °C): -1.99 ± 0.35

Sequence: CCAUAGCAAUAUUACGUGUA
- self-splicing fitness (ln) (30 °C): -4.27 ± 0.25
- self-splicing fitness (ln) (37 °C): -2.71 ± 0.22

Sequence: GAUAAGCAAUAUUACGCUAU
- self-splicing fitness (ln) (30 °C): -2.91 ± 0.26
- self-splicing fitness (ln) (37 °C): -1.01 ± 0.29

Sequence: CUGUAGCAAUAUUACGUGCG
- self-splicing fitness (ln) (30 °C): -1.38 ± 0.08
- self-splicing fitness (ln) (37 °C): -0.547 ± 0.092
